Measurements: IntAct's records for PubMed 15811349

Tests used:
pick1_mouse Pick1 = pick1_mouse Pick1 (UniProt Q62083)
afad_human AFDN = afad_human AFDN (UniProt P55196)
UniProt P55196, sequence (P55196 whole entry): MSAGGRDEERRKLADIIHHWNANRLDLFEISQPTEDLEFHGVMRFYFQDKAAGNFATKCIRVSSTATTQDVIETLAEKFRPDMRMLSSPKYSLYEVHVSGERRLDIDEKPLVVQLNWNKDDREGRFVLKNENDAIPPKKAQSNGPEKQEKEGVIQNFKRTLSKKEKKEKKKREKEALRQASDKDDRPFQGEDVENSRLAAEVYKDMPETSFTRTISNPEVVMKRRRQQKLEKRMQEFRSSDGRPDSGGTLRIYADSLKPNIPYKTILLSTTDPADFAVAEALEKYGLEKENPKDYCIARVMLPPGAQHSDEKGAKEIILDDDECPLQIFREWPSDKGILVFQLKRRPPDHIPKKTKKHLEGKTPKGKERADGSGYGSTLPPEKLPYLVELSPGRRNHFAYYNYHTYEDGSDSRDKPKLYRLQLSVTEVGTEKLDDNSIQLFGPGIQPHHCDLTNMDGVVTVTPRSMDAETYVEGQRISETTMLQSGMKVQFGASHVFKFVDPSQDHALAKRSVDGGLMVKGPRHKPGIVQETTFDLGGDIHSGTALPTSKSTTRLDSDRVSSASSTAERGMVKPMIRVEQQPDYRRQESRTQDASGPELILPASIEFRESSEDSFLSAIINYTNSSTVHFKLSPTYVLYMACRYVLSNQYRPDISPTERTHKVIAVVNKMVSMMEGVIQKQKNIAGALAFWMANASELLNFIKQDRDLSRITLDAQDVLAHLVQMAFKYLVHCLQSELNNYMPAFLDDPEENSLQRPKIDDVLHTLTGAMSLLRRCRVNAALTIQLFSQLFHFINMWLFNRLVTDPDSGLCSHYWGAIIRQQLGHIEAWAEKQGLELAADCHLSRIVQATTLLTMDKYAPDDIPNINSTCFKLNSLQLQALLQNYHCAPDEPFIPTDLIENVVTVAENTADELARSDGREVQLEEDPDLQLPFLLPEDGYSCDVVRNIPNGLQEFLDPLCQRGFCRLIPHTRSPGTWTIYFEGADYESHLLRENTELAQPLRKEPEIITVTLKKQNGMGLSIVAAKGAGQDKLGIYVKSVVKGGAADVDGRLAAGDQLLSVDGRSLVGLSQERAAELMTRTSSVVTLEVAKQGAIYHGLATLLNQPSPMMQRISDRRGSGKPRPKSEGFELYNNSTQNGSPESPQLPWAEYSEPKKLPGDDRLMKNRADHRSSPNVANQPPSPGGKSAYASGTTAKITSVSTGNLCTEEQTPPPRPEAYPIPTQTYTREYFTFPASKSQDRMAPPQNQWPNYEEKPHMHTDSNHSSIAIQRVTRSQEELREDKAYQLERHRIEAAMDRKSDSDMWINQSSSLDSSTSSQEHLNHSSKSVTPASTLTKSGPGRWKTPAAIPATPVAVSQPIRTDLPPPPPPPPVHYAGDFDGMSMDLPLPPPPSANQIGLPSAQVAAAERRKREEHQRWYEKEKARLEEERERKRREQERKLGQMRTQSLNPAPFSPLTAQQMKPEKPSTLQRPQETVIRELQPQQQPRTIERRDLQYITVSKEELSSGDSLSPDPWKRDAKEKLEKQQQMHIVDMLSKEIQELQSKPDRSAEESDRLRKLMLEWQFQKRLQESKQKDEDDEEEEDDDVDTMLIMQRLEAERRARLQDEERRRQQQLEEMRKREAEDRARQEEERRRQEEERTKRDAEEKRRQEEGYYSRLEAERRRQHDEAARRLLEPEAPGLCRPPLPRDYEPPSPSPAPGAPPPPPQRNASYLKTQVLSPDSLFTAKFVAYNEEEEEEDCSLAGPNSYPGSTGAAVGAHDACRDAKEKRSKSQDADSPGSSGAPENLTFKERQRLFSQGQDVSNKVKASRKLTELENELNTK

UniProt Q62083, sequence (Q62083 whole entry): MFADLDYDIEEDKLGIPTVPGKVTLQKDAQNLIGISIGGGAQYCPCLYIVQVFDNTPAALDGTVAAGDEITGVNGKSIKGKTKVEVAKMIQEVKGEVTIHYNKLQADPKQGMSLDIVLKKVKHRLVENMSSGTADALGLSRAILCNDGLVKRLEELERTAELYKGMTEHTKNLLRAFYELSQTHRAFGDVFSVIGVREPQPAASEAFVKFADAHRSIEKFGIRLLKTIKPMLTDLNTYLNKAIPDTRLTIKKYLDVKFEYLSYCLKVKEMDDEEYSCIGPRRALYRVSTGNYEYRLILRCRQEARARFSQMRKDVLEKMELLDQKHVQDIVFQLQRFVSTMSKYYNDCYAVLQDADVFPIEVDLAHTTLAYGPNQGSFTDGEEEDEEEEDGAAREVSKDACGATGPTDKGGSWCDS

effect of a mutation on the interaction (pick1_mouse Pick1)	effect of a mutation on the interaction (afad_human AFDN)	Substance
disrupting interaction		Nectin-3 (Homo sapiens) (from UniProt Q9NQS3) E546G
decreasing interaction	disrupting interaction	Nectin-3 (Homo sapiens) (from UniProt Q9NQS3) V549A
	disrupting interaction	Nectin-3 (Homo sapiens) (from UniProt Q9NQS3) Y548A
